Our source for the IC50, Ki and fold less potent than unlabeled rhMCP1 values is US20070036750A1.

Test [1] concerns the target human CCR2 (full-length, Genbank Accession No. NM-000648) on membranes of Ba/F3-hCCR2 cells (human) (UniProt P41597). Put plainly: competition with 30 pM radioiodinated human MCP1, SPA, Ba/F3-hCCR2 cell membranes.
The target is the same in test [2]. The experiment in a line: competition with radioiodinated human MCP1, SPA, membranes of cells containing CCR2.

As a reminder, the IC50 is the midpoint of a concentration-inhibition curve. A lower IC50 goes with greater potency in that assay. A word on the Ki: it is the dissociation constant of the complex between target and ligand, obtained from inhibition or displacement. Read a low Ki as higher affinity. In test [1], “hMCP1-mIg (NH2-human MCP1-Mouse Ig Heavy chain γ1 (hinge-CH2-CH3)-COOH) (Fc fusion)” showed a half-maximal inhibitory concentration (IC50) of 0.624 nM and a Ki of 0.287 nM. The substance further returned a fold less potent than unlabeled rhMCP1 in test [2] of 5 to 12 fold.

For “Recombinant human MCP1 (rhMCP1) (R & D Systems) (from UniProt P13500 24-99) (ligand)”, in test [1], the 50% inhibitory concentration (IC50) is 0.183 nM and the Ki was found to be 0.0845 nM.
